From publication PMC7933334, “The methyltransferase SETD2 couples transcription and splicing by engaging mRNA processing factors through its SHI domain” (Nature Communications, 2021) come the findings set out here.

This assay has as its target T1, GST-His-hnRNP L RRM2 (162–321) (human, UniProt P14866 162-321).
T1 construct: bait of the GST pull-down; source: E. coli Rosetta 2 (DE3) pLysS, purified (glutathione magnetic beads)
T1 sequence (looked up): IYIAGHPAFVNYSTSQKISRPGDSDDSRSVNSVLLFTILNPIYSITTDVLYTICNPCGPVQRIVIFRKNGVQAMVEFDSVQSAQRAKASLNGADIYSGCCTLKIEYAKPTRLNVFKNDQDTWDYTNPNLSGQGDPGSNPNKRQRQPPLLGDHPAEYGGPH
The experiment in a line: pull-down; GST pull-down with recombinant proteins purified from bacteria; GST-His-hnRNP L segments as baits, FLAG-SETD2 fragments as preys; RNase included in the binding assay; western blot with anti-His and anti-FLAG. To be noted: both partners purified.

B1: FLAG-SETD2 SHI (2114–2263) (domain or fragment, human, UniProt Q9BYW2 2114-2263, looked up)
chain: NKLSTEERRKLFEQEVAQREAQKQQQQMQNLGMTSPLPYDSLGYNAPHHPFAGYPPGYPMQAYVDPSNPNAGKVLLPTPSMDPVCSPAPYDHAQPLVGHSTEPLSAPPPVPVVPHVAAPVEVSSSQYVAQSDGVVHQDSSVAVLPVPAPG
notes: The methods say that proteins were eluted with either glutathione or AcTEV protease; source: E. coli Rosetta 2 (DE3) pLysS, purified (glutathione magnetic beads)
Turning to B1, the binding result is on record as “binds”.
